These results are taken from article PMC7765500, “Siderophore Scaffold as Carrier for Antifungal Peptides in Therapy of Aspergillus fumigatus Infections” (Journal of Fungi, 2020).

≈ marks a conversion by molar mass, not a printed value. Like-named read-outs stand apart in the source and are kept apart here. Square brackets hold non-standard residues; d marks the D form. Peptide text beside a SMILES is read from it. Orn(N5-OH,N5-Ac) = CC(=O)N(O)CCC[C@H](N)C(=O)O A value given as a limit tells only on which side of the number the result lay.

By logD is commonly meant the decadic logarithm of the distribution of all forms, ionised or not, between an organic phase and buffer at a given pH. High values mean a more lipophilic compound, low ones a more hydrophilic compound. For orientation: tissue uptake means the percentage of the injected dose found per gram of tissue. A lower tissue uptake goes with low uptake. Broadly, the IC50 is the midpoint of a concentration-inhibition curve. One may read the MIC as the lowest concentration that inhibits growth of the organism.

The format of series [1] is physicochemical. Particulars: pH 7.4. On the procedure: Aliquots of 50 µL of ^68Ga-labelled conjugate (~5 µM) were added to 450 µL of phosphate-buffered saline pH 7.4 (PBS) and 500 µL of Octanol into a 1.5 mL Eppendorf tube. The mixture was vigorously shaken for 20 min at 1400 rpm in a standard vortex (MS 3, IKA, Staufen, Germany) and hereafter, 200 µL of each phase removed and measured in a gamma counter (2480 automatic gamma counter Wizard2 3’’, Perkin Elmer, Waltham, MA, USA) LogD was calculated as the ratio of octanol/water phase using Excel. (n = 3, six technical replicates)

The test system of series [2] is A. fumigatus. The series can be described thus: Uptake assay of 68Ga-labelled conjugates in A. fumigatus. Type of series: cell-based, Aspergillus fumigatus. Particulars: iron-depleted AMM, 45 min, 37 °C. On the procedure:
Assays were performed as previously described. Briefly, uptake and competition assays were performed with A. fumigatus in iron-depleted and iron-replete Aspergillus minimal media (AMM), using a 96-well MultiScreen Filter Plates HTS (1 μm glass fiber filter, Merck Millipore, Darmstadt, Germany). Compounds were incubated for 45 min at 37 °C and filters measured in a gamma counter. Competition assays were performed in the same way except for pre-incubation with the iron-containing antifungal conjugates for 15 min, resulting in a competition at the MirB transporter to show specific binding to MirB.

The next series can be described thus: in vivo. Also on record: species or system BALB/c mice. To be noted: mouse, iv. As to the method: Stability test and biodistribution were conducted in 4–6 weeks-old female BALB/c mice (in-house breed, ZVTA Innsbruck). ^68Ga-labelled conjugates, dissolved in PBS (Ph. Eur. pH 7.4) and pH adjusted to pH 6.5 with sodium acetate, were injected via lateral tail vein using approximately 0.4 nmol of compound and a volume of 150 µL. For biodistribution, the same procedure was applied except for different time points of 45 and 90 min. Hereafter the animals were euthanized by cervical dislocation and the organs (blood, spleen, pancreas, stomach, liver, kidneys, heart, lung, muscle, femur) were removed and weighed. The activity of the samples was measured in a gamma counter and the results were calculated as a percentage of injected dose per gram tissue (%ID/g).

Series [3] concerns A. fumigatus (ATCC 46645). Type of series: cell-based, Aspergillus fumigatus. Particulars: AMM. On the procedure:
(§1) Susceptibility tests were performed according to CLSI guidelines with slight modifications. In brief, 96-well plates (Greiner Bio-One GmbH) were prepared with 100 μL of 2 × AMM (Aspergillus minimal medium) or 0.2 × Potato Dextrose Broth (PDB) containing 3 × 10^4 spores of A. fumigatus (ATCC 46645) per well. An amount of 100μL antifungal, dissolved in water, was added to get a final concentration of 1 × AMM/0.1 × PDB medium and antifungal concentration ranging from 0.031–16 μg/mL.

Series [4] relates to A. fumigatus (ATCC 46645). The format is cell-based, Aspergillus fumigatus. On the procedure:
as §1

Series [5] has as its system A. fumigatus. Also on record: method as in PMID 26956772. To be noted: 24 h, 37 °C, 0.1 × Vogel's medium; cited from earlier work.
In series [6] the test system is A. fumigatus. Also on record: method as in PMID 31405865. To be noted: RPMI medium, 48 h; cited from earlier work.

`CC(=O)N[C@@H]1CCCN(O)C(=O)/C=C(/C)CCOC(=O)[C@H](NC(=O)CCC(=O)N[C@@H](CC(N)=O)C(=O)N[C@@H](CC(C)C)C(=O)N[C@H](Cc2ccccc2)C(=O)O)CCCN(O)C(=O)/C=C(/C)CCOC(=O)[C@H](NC(C)=O)CCCN(O)C(=O)/C=C(/C)CCOC1=O` (stereo in doubt) [[^68Ga]Ga-DAFC-succ-NLF, metal not drawn]: in series [1], the logD is -2.84 ± 0.17. For the same molecule, the “Uptake into A. fumigatus hyphae normalized to uptake of [68Ga]Ga-TAFC” value in the series on A. fumigatus [2] is 13%. Further, the tissue uptake at 0.75 h in “in vivo” (Biodistribution Blood 45 min) was 0.41 ± 0.14 %ID/g; in the series “in vivo” (Biodistribution Femur 45 min), 1.76 ± 0.17 %ID/g; in “in vivo” (Biodistribution Heart 45 min), 0.18 ± 0.09 %ID/g; in the series “in vivo” (Biodistribution Intestine 45 min) it was 0.4 ± 0.1 %ID/g; in the series “in vivo” (Biodistribution Kidneys 45 min), 3.27 ± 0.61 %ID/g; in the series “in vivo” (Biodistribution Liver 45 min), 0.37 ± 0.07 %ID/g. Besides, the tissue uptake at 0.75 h in the series “in vivo” (Biodistribution Lung 45 min) was 0.61 ± 0.14 %ID/g; in the series “in vivo” (Biodistribution Muscle 45 min), 0.08 ± 0.01 %ID/g; in “in vivo” (Biodistribution Pancreas 45 min) it was 0.14 ± 0.05 %ID/g; in the series “in vivo” (Biodistribution Spleen 45 min) it was 0.23 ± 0.04 %ID/g; in the series “in vivo” (Biodistribution Stomach 45 min), 0.19 ± 0.09 %ID/g. Moreover, the tissue uptake at 1.5 h in the series “in vivo” (Biodistribution Blood 90 min) amounted to 0.05 ± 0.03 %ID/g; in “in vivo” (Biodistribution Femur 90 min) it was 0.31 ± 0.13 %ID/g; in the series “in vivo” (Biodistribution Heart 90 min), 0.05 ± 0.02 %ID/g; in the series “in vivo” (Biodistribution Intestine 90 min), 0.36 ± 0.07 %ID/g; in “in vivo” (Biodistribution Kidneys 90 min), 2.93 ± 0.38 %ID/g; in the series “in vivo” (Biodistribution Liver 90 min), 0.3 ± 0.05 %ID/g. In addition, the tissue uptake at 1.5 h in the series “in vivo” (Biodistribution Lung 90 min) was 0.21 ± 0.05 %ID/g; in “in vivo” (Biodistribution Muscle 90 min), 0.11 ± 0.14 %ID/g; in the series “in vivo” (Biodistribution Pancreas 90 min), 0.06 ± 0.02 %ID/g; in “in vivo” (Biodistribution Spleen 90 min), 0.19 ± 0.03 %ID/g; in the series “in vivo” (Biodistribution Stomach 90 min) it was 0.11 ± 0.01 %ID/g.
On to `N=C(N)NCCC[C@@H](N)C(=O)N[C@H](CCCCN)C(=O)N[C@H](CCCCN)C(=O)N[C@H](Cc1c[nH]c2ccccc12)C(=O)N[C@H](Cc1ccccc1)C(=O)N[C@H](Cc1c[nH]c2ccccc12)C(N)=O` [H2N-D-PAF26-NH2] (H-[dR][dK][dK][dW][dF][dW]-NH2), for which the “Antifungal activity (in words)” value in series [3] (0.031–16 µg/mL tested) was “no inhibition could be observed”. For the same molecule, the “MIC 24 h” value in series [3] (37 °C, 24 h) is listed as more than 16 µg/mL; in series [4] (0.1 × PDB, 37 °C, 24 h), 8 µg/mL (≈ 8.43 µM). In addition, the “MIC 48 h” value in series [3] (37 °C, 48 h) is listed as more than 16 µg/mL; in series [4] (0.1 × PDB, 37 °C, 48 h), 8 µg/mL; in series [4] (ATCC 46645, 48 h), 8.4 µM. Moreover, the “MIC / growth inhibition” value in series [4] (0.1 × PDB, incubation time not given) was 8 µg/mL (≈ 8.43 µM). Besides, the IC50 in the series on A. fumigatus [5] is 8 µM.
In the case of `CC(=O)N([O-])CCC[C@@H]1NC(=O)[C@H](CCCN([O-])C(C)=O)NC(=O)[C@H](CCCN([O-])C(C)=O)NC(=O)[C@@H](Cc2ccccc2)NC(=O)[C@H](CC(C)C)NC(=O)[C@H](CC(N)=O)NC1=O.[Al+3]` [VL-2397] (cyclo(L[dF][Orn(N5-OH,N5-Ac)][Orn(N5-OH,N5-Ac)][Orn(N5-OH,N5-Ac)]N)), in the series with A. fumigatus [6], the MIC was 1 µg/mL.
